# Experiment: Sedimentation rate / physical stability of micronized drug dispersions in HFA227 with or without chitosan-PLA nanoparticles
# Experimental: Sedimentation rate of micronized insulin in HFA 227 were conducted to test the physical stability of dispersions.
# [1] = pure (bare) drug particles in HFA227
substance,measurement,setting,value
insulin,creaming of dispersion,[1],creaming out in seconds
same,redispersibility,[1],not being redispersible
same,physical stability of dispersion,"pure (bare) drug particles, 2 mg/ml in HFA227, 298K, saturation pressure",poor stability
same,physical stability of dispersion,"upon addition of chitosan-PLA nanoparticles (1 or 2 mg/ml), HFA227",improved
same,redispersibility,"with chitosan-PLA nanoparticles, HFA227, after storage",can be redispersed simply by hand-shaking even after several days of storage
